From US20040248196A1 (COMMONWEALTH SCIENTIFIC AND INDUSTRIAL RESEARCH ORGANISATION, published 2004)

Assays:
[1] = biological target: T1, M 2-EGFR (wild-type N-terminus FLAG-tagged EGF receptor) (human, UniProt P00533 25-1210); assay: Scatchard plot (B/F specific against Bound) of 125I-EGF binding to BaF/3 cells expressing wt EGFR, cold ligand titration, fitted with Radlig; second (low affinity) of two sites
T1 construct: whole, on cells; Stably expressed on BaF/3 cells; also called wt EGFR; wild type EGFR; not shown: N-terminal FLAG tag

[2] = biological target: T2, M 2-EGFR E 21A (human, UniProt P00533 25-1210); assay: Scatchard plot (B/F specific against Bound) of 125I-EGF binding to BaF/3 cells expressing E21A EGFR, cold ligand titration, fitted with Radlig; second (low affinity) of two sites
T2 construct: whole, on cells; Transiently expressed in 293 cells and stably expressed in BaF/3 cells; also called Glu 21Ala; not shown: N-terminal FLAG tag

[3] = biological target: T2, M 2-EGFR E 21A; assay: Scatchard plot (B/F specific against Bound) of 125I-EGF binding to BaF/3 cells expressing E21A EGFR, cold ligand titration, fitted with Radlig; first (high affinity) of two sites
Protocol: This was determined in total cell lysates by sequential immunoblotting with anti-phosphotyrosine (top) or anti-EGFR (bottom) antibodies. […] Cross-linking of the EGFR via the extracellular portion was performed at 37° C. to maximize dimer yield. Samples were analyzed by SDS-PAGE on 3-8% gradient gels and immunoblotting with anti-EGFR antibodies.
The isolation and characterisation of stably transfected cell lines expressing wild-type and mutant EGFRs was performed using the II3-dependent murine hemopoietic lineage BaF/3 (Walker et al, 1998, Growth Factors 16, 53-67). Expression vectors containing the appropriate EGFR constructs were transfected individually by electroporation using a Gene Pulser (BioRad) according to manufacturer's instructions. Neomycin-resistant pools were generated by selection in G 418, and cloned by limiting dilution to obtain stable cell lines.

[4] = biological target: T1, M 2-EGFR (wild-type N-terminus …); assay: Scatchard plot (B/F specific against Bound) of 125I-EGF binding to BaF/3 cells expressing wt EGFR, cold ligand titration, fitted with Radlig; first (high affinity) of two sites

B1: iodinated murine EGF (ligand, UniProt P01132 977-1029, looked up)
chain: NSYPGCPSSYDGYCLNGGVCMHIESLDSYTCNCVIGYSGDRCQTRDLRWWELR
modifications: 125I-iodinated (site not stated)
notes: mature; Unlabelled EGF was used for the cold titration
- Kd [1]: 1100 pM
- Kd [2]: 1100 pM
- Kd [3]: 45 pM
- Kd [4]: 39 pM
